# Laboratory results reported in the DeepSol protein solubility set.
# Test: soluble on expression in E. coli; label from the status in PepcDB or PDB records
row,Sequence,soluble on expression in E. coli
1,MDKIEVRGARTHNLKNINLVIPRDKLIVVTGLSGSGKSSLAFDTLYAEGQRRYVESLSAYARQFLSLMEKPDVDHIEGLSPAISIEQKSTSHNPRSTVGTITEIHDYLRLLFARVGEPRCPDHDVPLAAQTVSQMVDNVLSQPEGKRLMLLAPIIKERKGEHTKTLENLASQGYIRARIDGEVCDLSDPPKLELQKKHTIEVVVDRFKVRDDLTQRLAESFETALELSGGTAVVADMDDPKAEELLFSANFACPICGYSMRELEPRLFSFNNPAGACPTCDGLGVQQYFDPDRVIQNPELSLAGGAIRGWDRRNFYYFQMLKSLADHYKFDVEAPWGSLSANVHKVVLYGSGKENIEFKYMNDRGDTSIRRHPFEGVLHNMERRYKETESSAVREELAKFISNRPCASCEGTRLRREARHVYVENTPLPAISDMSIGHAMEFFNNLKLAGQRAKIAEKILKEIGDRLKFLVNVGLNYLTLSRSAETLSGGEAQRIRLASQIGAGLVGVMYVLDEPSIGLHQRDNERLLGTLIHLRDLGNTVIVVEHDEDAIRAADHVIDIGPGAGVHGGEVVAEGPLEAIMAVPESLTGQYMSGKRKIEVPKKRVPANPEKVLKLTGARGNNLKDVTLTLPVGLFTCITGVSGSGKSTLINDTLFPIAQRQLNGATIAEPAPYRDIQGLEHFDKVIDIDQSPIGRTPRSNPATYTGVFTPVRELFAGVPESRARGYTPGRFSFNVRGGRCEACQGDGVIKVEMHFLPDIYVPCDQCKGKRYNRETLEIKYKGKTIHEVLDMTIEEAREFFDAVPALARKLQTLMDVGLTYIRLGQSATTLSGGEAQRVKLARELSKRGTGQTLYILDEPTTGLHFADIQQLLDVLHKLRDQGNTIVVIEHNLDVIKTADWIVDLGPEGGSGGGEILVSGTPETVAECEASHTARFLKPML,soluble
2,MIMALSSFGKILTVLDLFSVHRPIINVDIICEELALSKPTGYRYLKELVSSEILQRISGTSGDYTLGPKIAVMDYISRTTDPIVQMSSPFMRDIAERTELCCLLTHLNRDYCIDVHHEVFRNADLLSYGRGCPRPVYMGSSPKVIMAHLPKRQIQDYYQRFSRQLAEVDFAHDEESFLIRMKKIKKDGYYISHGELNPDVTGLSVPIKFSHTKESPMALTLVASKNRFEFINIDKLIEILQANVIHIEQKSLALIQIEKSLH,not soluble
3,MGSDKIHHHHHHMLSRTADHLYWMARYIERAENMARVLDVTYNMSLVPNASQSETTLWEPALQIAGGVDSYRQEYGEVTAGGVVRFLAMDTKNPSSIYSTLRSARENARSVRVTLSAETWENINALWLEFSQFVGMDLMQKGLGEFCDWVKSRSHLFRGVSFGTMLRDDAFRFLRLGTFIERADNTARLLDVKYHLLLPSGEEVGGAVDYYEWSAILRAVSAFHAYQKVFNDAIEPWKVAELLVLREDMPRSLHACFSEITPILDQLNGRHSSECRRLAGELHARLRYGRMTDIFQGGLHEFLTDFITSNNNLGAEIQRTFLNAPINGLAAETE,not soluble
4,MWFRNLLVYRLTQDLQLDADSLEKALGEKSARPCASQELTTYGFTAPFGKGPDAPLVHVSQDFFLISARKEERILPGSVVRDALKEKVDEIEAQQMRKVYKKERDQLKDEIVQTLLPRAFIRRSSTFAAIAPSLGLILVDSASAKKAEDLLSTLREALGSLPVRPLSVKVAPTATLTDWVKTQEAAGDFHVLDECELRDTHEDGGVVRCKRQDLTSEEIQLHLTAGKLVTQLSLAWSDKLSFVLDDKLAVKRLRFEDLLQEQAEKDGGEDALGQLDASFTLMMLTFAEFLPALFEALGGEEIPQGV,soluble
5,MSDQQQPPVYKIALGIEYDGSKYYGWQRQNEVRSVQEKLEKALSQVANEPITVFCAGRTDAGVHGTGQVVHFETTAQRKDAAWTLGVNANLPGDIAVRWVKAVPDDFHARFSATARRYRYIIYNHRLRPAVLSKGVTHFYEPLDAERMHRAAQCLLGENDFTSFRAVQCQSRTPWRNVMHINVTRHGPYVVVDIKANAFVHHMVRNIVGSLMEVGAHNQPESWIAELLAAKDRTLAAATAKAEGLYLVAVDYPDRYDLPKPPMGPLFLAD,soluble
6,GSQNNECKMVDLRGAKVASFTVEGCELICLPQAFDLFLKHLVGGLHTVYTKLKRLEITPVVCNVEQVRILRGLGAIQPGVNRCKLISRKDFETLYNDCTNA,soluble
7,MSLAEIGVDAAFIDLLVETFYGRVLEHQTLGPVFDARLAGRWPEHMARMKQFWTAIAFKNGSYGGKPVQAHLGVQGMSAELFPQWLALFSVTLDDIAPSRKAHDWFMETAERIARSLTLSLFYNPAMDDPAVKREGHHHHHH,not soluble
8,MDQTQNTIAGIGEINGSIKTEINAIATVDDSNEKLNQIINSNQKILELLHQLKLTVSSFTPASQLHLLQRLNSLVMELDNMAKLSDKCNIQVPIEVLNLIDDGKNPDEFTKDVLNKNCIAKNQVTKGKSDAFKGLRKHLLEELEQAFPDEVDRYRDIRASYAAEAKRLAQTQSVLPNGDAKVKSEL,soluble
9,MSLLKQRFVLDTTALTDLQTREVMGYASLCEGMKAILDLIADARLHFGISCYVPYPSVYKEMYEFASRNGCDREVVAKIDTWLVKKSPDRYRVSVTSQIFHEYVAYMRERINRGMGVAEDAIWEAATECLFMENPQNKKKEYKEEVEREVIGGIIGKFRNKYRAALRYGILDSAPDIDVLILAKELDAAVIASDYGIEKWAEQLGVRFVPANVFPMMIQEYLKHLPENENEPEYENRDKSKEGSSGEIEFIEGHHHHHH,soluble
10,GPLGSPEFGYWITCCPTCDVDINTWVPFYSTELNKPAMIYCSHGDGHWVHAQCMDLEERTLIHLSEGSNKYYCNEHVQIARA,soluble
11,MSSLHKSRIADFQDVLKEPSIALEKLRELSFSGIPCEGGLRCLCWKILLNYLPLERASWTSILAKQRELYAQFLREMIIQPGIAKANMGVSREDVTFEDHPLNPNPDSRWNTYFKDNEVLLQIDKDVRRLCPDISFFQRATDYPCLLILDPQNEFETLRKRVEQTTLKSQTVARNRSGVTNQEQNIKPQFFAFRWLTLLLSQEFLLPDVTRIWDSLFADDNRFDFLLLVCCAMLMLIREQLLEGDFTVNMRLLQDYPITDVCQILQKAKELQDSK,soluble
12,KRKDITLLNPIVRKFQYGQHTVTLETGMMARQATAAVMVSMDDTAVFVTVVGQKKAKPGQDFFPLTVNYQERTYAAGRIPGSFFRREGRPSEGETLIARLIDRPIRPLFPEGFVNEVQVIATVVSVNPQVNPDIVAMIGASAALSLSGIPFNGPIGAARVGYINDQYVLNPTQDELKESKLDLVVAGTEAAVLMVESEAQLLSEDQMLGAVVFGHEQQQVVIQNINELVKEAGKPRWDWQPEPVNEALNARVAALAEARLSDAYRITDKQERYAQVDVIKSETIATLLAEDETLDENELGEILHAIEKNVVRSRVLAGEPRIDGREKDMIRGLDVRTGVLPRTHGSALFTRGETQALVTATLGTARDAQVLDELMGERTDTFLFHYNFPPYSVGETGMVGSPKRREIGHGRLAKRGVLAVMPDMDKFPYTVRVVSEITESNGSSSMASVCGASLALMDAGVPIKAAVAGIAMGLVKEGDNYVVLSDILGDEDHLGDMDFKVAGSRDGISALQMDIKIEGITKEIMQVALNQAKGARLHILGVMEQAINAPRGDISEFAPRIHTIKINPDKIKDVIGKGGSVIRALTEETGTTIEIEDDGTVKIAATDGEKAKHAIRRIEEITAEIEVGRVYTGKVTRIVDFGAFVAIGGGKEGLVHISQIADKRVEKVTDYLQMGQEVPVKVLEVDRQGRIRLSIKEATEQSQPAAAPEAPAAEQGEHHHHHH,soluble
13,MTKQIKVGVIGVGQMGQYHAEIYQKLPQVELVAICEFNDERRAEMAEKFQCKAYKDYHELLANTEIEAVIIVLPDNMHRDCVEEAVKHKKHILLEKPLAKELEDGKAMYELTKDYDKVFTVGFLLRFDPRFNMIKQRLDNGELGDIIHLYCRRNSPITGPKRYIGASDLSMHVMIHDIDYINWYMDSEPVKVIAKSRSVLLKEYGMNDVIYAIVTYENGAIACLEACWVLPENSPTIIDDKLELVGTKGVAYVDSCDHGVRFVSEKGVSYPDSRHWYYTNGEVSGDLAEEVMAFINNVANNTKSIITPKEAYDSLRVVDAIERSIAEGKEVSL,not soluble
14,MGSDKIHHHHHHMFSMTKDWREQRILDSSEFTHADWLQAAQRIVILGRLNEDELTRLFELATLFLADKSITGAQGFEITDAVKQSIALQACLPILNLSLEWYAGWSAIIIYPGSYKSETTTVDELGIVHEGSQHRSGEAWLRGPVILSWKDAKHSGERDGHNVVIHEFVHKLDMLNGRANGFPPLQPDMDPVRWTEIMTRDFEDFQSHHKSGFDRYGATNPAEFFAVLSEVFFETPQKLIDAYPDIYEIMVKFFRQTPLEPRP,not soluble
15,MIQDKEVTLEYVSSLDFWYCKRCKANIGGHRSSCSFCKNPREVTEAKQELITYPQPQKTSIPAPLEKQPNQPLRPADKEPEPRKREEGQESRLGHQKREAERYLPPSRREGPTFRRDRERESWSGETRQDGESKTIMLKRIYRSTPPEVIVEVLEPYVRLTTANVRIIKNRTGPMGHTYGFIDLDSHAEALRVVKILQNLDPPFSIDGKMVAVNLATGKRRNDSGDHSDHMHYYQGKKYFRDRRGGGRNSDWSSDTNRQGQQSSSDCYIYDSATGYYYDPLAGTYYDPNTQQEVYVPQDPGLPEEEEIKEKKPTSQGKSSSKKEMSKRDGKEKKDRGVTRFQENASEGKAPAEDVFKKPLPPTVKKEESPPPPKVVNPLIGLLGEYGGDSDYEEEEEEEQTPPPQPRTAQPQKREEQTKKENEEDKLTDWNKLACLLCRRQFPNKEVLIKHQQLSDLHKQNLEIHRKIKQSEQELAYLERREREGKFKGRGNDRREKLQSFDSPERKRIKYSRETDSDRKLVDKEDIDTSSKGGCVQQATGWRKGTGLGYGHPGLASSEEAEGRMRGPSVGASGRTSKRQSNETYRDAVRRVMFARYKELD,not soluble
16,MTADALVRAPAEPTHPIREWTTVFVGTGDEHLVVAEGPKHRDWRKIGNVFREPARTAVLGLIRTCIADRELKIETFEGKVADALGPVAAAHPILTPDKSVVVAVQIWSGDPKKNPPDRPNVGAWEWVLSSEDNPPPPQLQLDPGAIELIGMSTRHQDRSVFGPADLYTRSARLSDTLRHVRQIRDCQVKDRFDGTFTIRAEADVTRELRYAERCVEGPAGRRVRGICWDAGTDEALVHESMLDAWLSTMLASTSGMYIAVGDLSYQYPYWLKWVTEHVPGLGHGVSTGQTFALHEEDWPKIIEWVQQVRKGPVSGTVRARRGGGGWLKAEFRGFLLDPLVSDSIGVAVISPEIETIPDETS,not soluble
17,MSLVRMRVGKFDYLNNFLPYYFLNEKVEIVEANPREMASMLLSGRIDYAPVPAFFYLKNRERLRHYEFCVASEGKVLSVVVVSRKKELDDGSIAVTPHSLTSVNLLKILLAERGMKNMLVEVNTAKASEMLELCPHALVIGDEAIKARMIYKVVMDLGEEWYELTSLPAVFGISASLKETNAEEMDRKILMATEEGYRRFDEVVRAAEKAFKMPREFLEEYFRTLKFRLSSKERRGLDEFEKYCRDYGLLEEGHHHHHH,not soluble
18,MVWDVETAKRFLEVIRNETIYYPVLIALHTGMRAGEIVSLKWYDVNFEARIISVVKSVRNNRGLKTSDVKTKTSKRSVYINDVLFSELKNLYETIKPKPDDFVCPRLPTGNLTVGYLSKRFKLLVKRYNFPVIRFHDLRHTFATLMLSLGVNTKIVAEILGHSDIKLTADTYSHVLPTMQESAMKEFSKLWKLEHHHHHH,soluble
19,MGSDKIHHHHHHMNYFATVARGLETLAAQELEQLGAHSVEPGFCGVAFEGDRTLLYRVNLWARLPFRILVDIHEFPCLDAKDLYRGIQTIDWQNYLTPDMTLAVNVTGKNAHLNHSHFTSLQVKNAIVDQQQEKLGERSNVELHEPDVRVNVHIERDFCTVKLDSSGNSLHRRGYRPAVGSAPLKESLAAALIQLSGWKQDQMFYDPLCGSGTLPLEASLKALNIAPGLFRESFGFENWLDFDLVLLEKLLQEAKDSQLDTLPAPIWGSDHDENVIEQAINNAQNCGVDNHVWFSQMELADVVAPADSGILLCNPPYGERLGRDSDLGAFYKLLGDVLKQRFKGWTAFVLSGNKELSQSIGLKSSKRIAVYNGALPCQLMKYELY,not soluble
